Measured values published in US20130011380A1.
Values joined by “and” are separate entries in the source; they are usually repeats but may differ in a detail not shown here. Identical values can stand only once. Each block holds one substance with its values, some of them ahead of it.

Columns and labels:
Experiment in all cases: anti-Flag IP-MS, mES nuclear extract
Tip2 (mouse) = biological target: Tip2 (mouse)
Lmo7 (mouse) = Lmo7 (mouse) (UniProt E9PYF4)
Kif11 (mouse) = Kif11 (mouse) (UniProt Q6P9P6)
Smarca1 (mouse) = Smarca1 (mouse) (UniProt Q6PGB8)
Gart (mouse) = Gart (mouse) (UniProt Q64737)
Sequence of Gart (mouse) (Q64737 2-1010 limits assumed): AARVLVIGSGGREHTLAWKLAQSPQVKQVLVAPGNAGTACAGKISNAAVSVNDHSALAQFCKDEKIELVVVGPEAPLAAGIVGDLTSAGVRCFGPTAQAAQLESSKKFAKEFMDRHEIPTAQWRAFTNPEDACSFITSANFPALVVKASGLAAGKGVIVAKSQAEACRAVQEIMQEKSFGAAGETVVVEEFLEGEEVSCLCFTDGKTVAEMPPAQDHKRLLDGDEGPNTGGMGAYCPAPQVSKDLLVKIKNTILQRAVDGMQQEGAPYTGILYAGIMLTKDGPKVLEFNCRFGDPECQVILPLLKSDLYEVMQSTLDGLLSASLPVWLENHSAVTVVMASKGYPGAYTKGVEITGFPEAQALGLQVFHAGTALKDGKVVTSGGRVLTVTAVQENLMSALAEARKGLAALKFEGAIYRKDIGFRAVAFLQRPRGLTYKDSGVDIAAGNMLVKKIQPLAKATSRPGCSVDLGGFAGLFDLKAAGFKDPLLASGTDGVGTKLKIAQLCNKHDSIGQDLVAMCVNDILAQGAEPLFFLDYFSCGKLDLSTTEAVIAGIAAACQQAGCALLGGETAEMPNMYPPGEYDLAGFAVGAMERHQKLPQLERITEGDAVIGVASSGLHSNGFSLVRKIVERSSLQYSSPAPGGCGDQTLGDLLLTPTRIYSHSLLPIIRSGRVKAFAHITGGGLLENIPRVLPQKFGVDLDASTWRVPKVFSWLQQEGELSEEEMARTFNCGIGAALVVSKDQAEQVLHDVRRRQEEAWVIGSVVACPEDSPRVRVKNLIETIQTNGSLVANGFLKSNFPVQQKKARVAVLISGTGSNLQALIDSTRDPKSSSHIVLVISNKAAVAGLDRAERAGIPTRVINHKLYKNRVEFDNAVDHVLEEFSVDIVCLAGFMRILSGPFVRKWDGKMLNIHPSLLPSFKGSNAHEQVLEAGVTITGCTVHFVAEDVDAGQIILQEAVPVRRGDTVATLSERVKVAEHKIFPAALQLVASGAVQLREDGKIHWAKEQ

Ruvbl2 (mouse) = Ruvbl2 (mouse) (UniProt Q9WTM5)
Sequence of Ruvbl2 (mouse) (Q9WTM5 2-463 limits assumed): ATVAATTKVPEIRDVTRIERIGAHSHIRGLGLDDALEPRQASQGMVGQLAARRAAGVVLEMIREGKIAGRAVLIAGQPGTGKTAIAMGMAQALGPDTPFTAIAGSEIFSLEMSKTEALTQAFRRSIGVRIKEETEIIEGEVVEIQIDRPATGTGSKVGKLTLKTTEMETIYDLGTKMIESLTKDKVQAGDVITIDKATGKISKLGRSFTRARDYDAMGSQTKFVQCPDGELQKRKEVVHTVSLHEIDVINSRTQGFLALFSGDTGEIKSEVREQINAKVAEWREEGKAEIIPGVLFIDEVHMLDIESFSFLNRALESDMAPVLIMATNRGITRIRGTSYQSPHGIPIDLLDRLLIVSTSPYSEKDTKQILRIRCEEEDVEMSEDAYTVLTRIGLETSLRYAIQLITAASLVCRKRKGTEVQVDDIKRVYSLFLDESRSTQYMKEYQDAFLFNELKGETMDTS

Psmd2 (mouse) = Psmd2 (mouse) (UniProt Q8VDM4)
Cul4b (mouse) = Cul4b (mouse) (UniProt A2A432)
Tmem48 (mouse) = Tmem48 (mouse) (UniProt Q8VCB1)
Pkm2 (mouse) = Pkm2 (mouse) (UniProt P52480)
Cct2 (mouse) = Cct2 (mouse) (UniProt P80314)
Sequence of Cct2 (mouse) (P80314 2-535 limits assumed): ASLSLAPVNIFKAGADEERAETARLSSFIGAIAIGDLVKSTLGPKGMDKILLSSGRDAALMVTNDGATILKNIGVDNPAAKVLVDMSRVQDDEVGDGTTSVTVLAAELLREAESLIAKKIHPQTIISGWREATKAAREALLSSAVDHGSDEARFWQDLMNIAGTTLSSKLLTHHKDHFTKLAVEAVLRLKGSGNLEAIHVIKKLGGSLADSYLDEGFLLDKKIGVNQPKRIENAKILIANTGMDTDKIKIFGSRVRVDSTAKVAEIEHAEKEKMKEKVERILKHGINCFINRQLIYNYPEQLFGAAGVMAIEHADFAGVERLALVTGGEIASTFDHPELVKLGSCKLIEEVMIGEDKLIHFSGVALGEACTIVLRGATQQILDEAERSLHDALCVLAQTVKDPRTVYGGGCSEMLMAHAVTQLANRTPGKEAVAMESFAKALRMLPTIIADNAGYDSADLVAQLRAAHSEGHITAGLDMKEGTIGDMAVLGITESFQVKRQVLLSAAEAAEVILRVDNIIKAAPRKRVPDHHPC

Nsd1 (mouse) = Nsd1 (mouse) (UniProt O88491)
Gm1040 (mouse) = Gm1040 (mouse) (UniProt Q3UFM5)
Tufm (mouse) = Tufm (mouse) (UniProt Q8BFR5)
Cct8 (mouse) = Cct8 (mouse) (UniProt P42932)
Nol9 (mouse) = Nol9 (mouse) (UniProt Q3TZX8)
Calu (mouse) = Calu (mouse) (UniProt O35887)
Ncapd2 (mouse) = Ncapd2 (mouse) (UniProt Q8K2Z4)
Racgap1 (mouse) = Racgap1 (mouse) (UniProt Q9WVM1)
Tubb6 (mouse) = Tubb6 (mouse) (UniProt Q922F4)
Ncapg (mouse) = Ncapg (mouse) (UniProt E9PWG6)
Wapal (mouse) = Wapal (mouse) (UniProt Q65Z40)
Ywhab (mouse) = Ywhab (mouse) (UniProt Q9CQV8)
Spnb2 (mouse) = Spnb2 (mouse) (UniProt Q62261)
Sequence of Spnb2 (mouse) (Q62261 2-2363 limits assumed): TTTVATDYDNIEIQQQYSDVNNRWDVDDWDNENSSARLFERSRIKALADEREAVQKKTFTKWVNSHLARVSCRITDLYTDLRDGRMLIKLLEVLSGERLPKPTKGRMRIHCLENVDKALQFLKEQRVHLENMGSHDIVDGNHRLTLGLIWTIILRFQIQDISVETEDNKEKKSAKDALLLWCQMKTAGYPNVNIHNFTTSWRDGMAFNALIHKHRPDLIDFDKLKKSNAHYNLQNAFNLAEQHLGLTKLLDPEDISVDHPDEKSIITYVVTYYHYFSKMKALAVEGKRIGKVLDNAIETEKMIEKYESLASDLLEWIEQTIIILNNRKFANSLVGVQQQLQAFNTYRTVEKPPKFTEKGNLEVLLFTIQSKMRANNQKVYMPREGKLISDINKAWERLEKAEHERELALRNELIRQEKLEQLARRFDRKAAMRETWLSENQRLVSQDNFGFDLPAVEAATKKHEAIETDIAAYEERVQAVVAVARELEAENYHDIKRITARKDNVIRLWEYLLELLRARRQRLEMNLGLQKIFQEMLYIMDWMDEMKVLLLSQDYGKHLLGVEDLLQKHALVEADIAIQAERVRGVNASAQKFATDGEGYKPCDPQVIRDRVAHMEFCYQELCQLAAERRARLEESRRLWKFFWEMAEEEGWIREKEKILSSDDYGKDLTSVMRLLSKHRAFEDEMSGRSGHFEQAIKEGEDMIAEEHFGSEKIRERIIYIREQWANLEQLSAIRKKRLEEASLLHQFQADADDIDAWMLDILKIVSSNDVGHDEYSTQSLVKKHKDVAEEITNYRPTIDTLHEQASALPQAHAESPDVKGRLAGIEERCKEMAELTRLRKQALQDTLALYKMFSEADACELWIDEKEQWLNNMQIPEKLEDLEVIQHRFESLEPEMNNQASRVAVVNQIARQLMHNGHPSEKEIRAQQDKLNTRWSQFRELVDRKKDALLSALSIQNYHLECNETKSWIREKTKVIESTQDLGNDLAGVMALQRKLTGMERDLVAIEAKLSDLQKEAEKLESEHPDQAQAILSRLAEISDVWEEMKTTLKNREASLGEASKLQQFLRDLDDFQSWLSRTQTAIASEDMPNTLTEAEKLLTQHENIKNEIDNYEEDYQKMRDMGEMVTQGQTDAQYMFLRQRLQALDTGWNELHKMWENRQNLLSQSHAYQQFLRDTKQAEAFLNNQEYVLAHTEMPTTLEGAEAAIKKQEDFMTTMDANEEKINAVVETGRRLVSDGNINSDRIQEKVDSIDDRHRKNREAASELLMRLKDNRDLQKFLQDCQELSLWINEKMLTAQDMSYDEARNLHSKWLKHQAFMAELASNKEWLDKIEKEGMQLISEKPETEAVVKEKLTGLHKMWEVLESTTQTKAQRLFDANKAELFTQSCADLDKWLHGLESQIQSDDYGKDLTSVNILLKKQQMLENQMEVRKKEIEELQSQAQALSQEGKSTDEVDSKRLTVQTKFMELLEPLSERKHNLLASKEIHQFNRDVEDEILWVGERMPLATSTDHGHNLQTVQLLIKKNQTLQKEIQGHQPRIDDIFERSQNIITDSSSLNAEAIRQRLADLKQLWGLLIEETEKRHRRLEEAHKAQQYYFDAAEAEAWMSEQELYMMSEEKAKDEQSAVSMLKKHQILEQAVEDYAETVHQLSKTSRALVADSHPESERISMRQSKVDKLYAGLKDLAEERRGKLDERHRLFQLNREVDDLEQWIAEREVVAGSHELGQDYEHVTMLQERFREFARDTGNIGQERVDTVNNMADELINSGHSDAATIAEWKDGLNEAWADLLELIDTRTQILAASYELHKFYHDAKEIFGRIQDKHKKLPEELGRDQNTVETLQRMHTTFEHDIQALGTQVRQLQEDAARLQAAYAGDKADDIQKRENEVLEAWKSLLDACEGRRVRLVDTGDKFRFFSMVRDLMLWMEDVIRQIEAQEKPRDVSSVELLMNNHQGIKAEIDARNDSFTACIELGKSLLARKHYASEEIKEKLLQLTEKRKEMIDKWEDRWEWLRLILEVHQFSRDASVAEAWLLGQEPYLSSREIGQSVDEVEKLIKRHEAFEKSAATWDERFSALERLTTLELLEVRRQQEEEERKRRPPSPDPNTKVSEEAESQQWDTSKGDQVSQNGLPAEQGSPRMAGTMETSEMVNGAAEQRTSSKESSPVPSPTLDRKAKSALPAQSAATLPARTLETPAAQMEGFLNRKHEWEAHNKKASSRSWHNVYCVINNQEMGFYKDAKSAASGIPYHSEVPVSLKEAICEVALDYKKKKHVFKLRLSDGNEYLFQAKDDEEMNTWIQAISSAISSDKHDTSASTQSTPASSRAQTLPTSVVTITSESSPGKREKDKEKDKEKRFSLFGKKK

Tmpo (mouse) = biological target: Tmpo (mouse)
Pcbp1 (mouse) = Pcbp1 (mouse) (UniProt P60335)
Zfp655 (mouse) = Zfp655 (mouse) (UniProt Q9CZP3)
Ttf1 (mouse) = Ttf1 (mouse) (UniProt Q62187)
Plec1 (mouse) = Plec1 (mouse) (UniProt Q9QXS1)
Smpd4 (mouse) = Smpd4 (mouse) (UniProt Q6ZPR5)
Canx (mouse) = Canx (mouse) (UniProt P35564)
Sequence of Canx (mouse) (P35564 21-591 limits assumed): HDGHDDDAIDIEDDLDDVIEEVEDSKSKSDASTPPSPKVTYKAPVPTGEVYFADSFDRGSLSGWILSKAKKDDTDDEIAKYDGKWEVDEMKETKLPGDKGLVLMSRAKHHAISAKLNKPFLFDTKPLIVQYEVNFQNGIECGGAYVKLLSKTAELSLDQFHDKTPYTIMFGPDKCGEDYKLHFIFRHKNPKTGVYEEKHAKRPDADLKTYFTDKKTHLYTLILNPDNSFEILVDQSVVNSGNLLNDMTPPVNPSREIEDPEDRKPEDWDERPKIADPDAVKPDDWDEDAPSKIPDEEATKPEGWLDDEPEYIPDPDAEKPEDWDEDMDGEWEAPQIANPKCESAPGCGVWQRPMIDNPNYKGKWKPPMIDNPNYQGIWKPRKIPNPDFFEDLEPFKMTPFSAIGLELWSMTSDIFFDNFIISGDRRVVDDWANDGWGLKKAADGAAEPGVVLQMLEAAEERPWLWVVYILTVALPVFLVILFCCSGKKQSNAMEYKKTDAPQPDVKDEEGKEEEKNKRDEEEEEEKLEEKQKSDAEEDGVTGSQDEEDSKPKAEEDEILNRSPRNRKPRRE

Kif23 (mouse) = Kif23 (mouse) (UniProt E9Q5G3)

Nucleus peptide (Tip2 (mouse)): 6 peptides | Nucleus spectra (Tip2 (mouse)): 14 spectra | Nucleus peptide (Lmo7 (mouse)): 0 peptides | Nucleus spectra (Lmo7 (mouse)): 0 spectra | Nucleus peptide (Kif11 (mouse)): 0 peptides | Nucleus spectra (Kif11 (mouse)): 0 spectra | Nucleus peptide (Smarca1 (mouse)): 2 peptides | Nucleus spectra (Smarca1 (mouse)): 3 spectra | Nucleus peptide (Gart (mouse)): 2 peptides | Nucleus spectra (Gart (mouse)): 3 spectra | Nucleus peptide (Ruvbl2 (mouse)): 4 peptides | Nucleus spectra (Ruvbl2 (mouse)): 10 spectra | Nucleus peptide (Psmd2 (mouse)): 1 peptides | Nucleus spectra (Psmd2 (mouse)): 1 spectra | Nucleus peptide (Cul4b (mouse)): 0 peptides | Nucleus spectra (Cul4b (mouse)): 0 spectra | Nucleus peptide (Tmem48 (mouse)): 1 peptides | Nucleus spectra (Tmem48 (mouse)): 1 spectra | Nucleus peptide (Pkm2 (mouse)): 1 peptides | Nucleus spectra (Pkm2 (mouse)): 1 spectra | Nucleus peptide (Cct2 (mouse)): 2 peptides | Nucleus spectra (Cct2 (mouse)): 4 spectra | Nucleus peptide (Nsd1 (mouse)): 1 peptides | Nucleus spectra (Nsd1 (mouse)): 2 spectra | Nucleus peptide (Gm1040 (mouse)): 1 peptides | Nucleus spectra (Gm1040 (mouse)): 1 spectra | Nucleus peptide (Tufm (mouse)): 6 peptides | Nucleus spectra (Tufm (mouse)): 11 spectra | Nucleus peptide (Cct8 (mouse)): 6 peptides | Nucleus spectra (Cct8 (mouse)): 10 spectra | Nucleus peptide (Nol9 (mouse)): 1 peptides | Nucleus spectra (Nol9 (mouse)): 1 spectra | Nucleus peptide (Calu (mouse)): 0 peptides | Nucleus spectra (Calu (mouse)): 0 spectra | Nucleus peptide (Ncapd2 (mouse)): 1 peptides | Nucleus spectra (Ncapd2 (mouse)): 1 spectra | Nucleus peptide (Racgap1 (mouse)): 3 peptides | Nucleus spectra (Racgap1 (mouse)): 3 spectra | Nucleus peptide (Tubb6 (mouse)): 1 peptides | Nucleus spectra (Tubb6 (mouse)): 1 spectra | Nucleus peptide (Ncapg (mouse)): 0 peptides | Nucleus spectra (Ncapg (mouse)): 0 spectra | Nucleus peptide (Wapal (mouse)): 0 peptides | Nucleus spectra (Wapal (mouse)): 0 spectra | Nucleus peptide (Ywhab (mouse)): 0 peptides | Nucleus spectra (Ywhab (mouse)): 0 spectra | Nucleus peptide (Spnb2 (mouse)): 7 peptides | Nucleus spectra (Spnb2 (mouse)): 11 spectra | Nucleus peptide (Tmpo (mouse)): 2 peptides | Nucleus spectra (Tmpo (mouse)): 6 spectra | Nucleus peptide (Pcbp1 (mouse)): 2 peptides | Nucleus spectra (Pcbp1 (mouse)): 6 spectra | Nucleus peptide (Zfp655 (mouse)): 0 peptides | Nucleus spectra (Zfp655 (mouse)): 0 spectra | Nucleus peptide (Ttf1 (mouse)): 1 peptides | Nucleus spectra (Ttf1 (mouse)): 1 spectra | Nucleus peptide (Plec1 (mouse)): 15 peptides | Nucleus spectra (Plec1 (mouse)): 20 spectra | Nucleus peptide (Smpd4 (mouse)): 4 peptides | Nucleus spectra (Smpd4 (mouse)): 8 spectra | Nucleus peptide (Canx (mouse)): 2 peptides | Nucleus spectra (Canx (mouse)): 2 spectra
Substance: 2x Flag tag only (control) (peptide)

Nucleus peptide (Kif23 (mouse)): 4 peptides and 7 peptides | Nucleus spectra (Kif23 (mouse)): 11 spectra and 18 spectra | Nucleus peptide (Kif11 (mouse)): 3 peptides | Nucleus spectra (Kif11 (mouse)): 4 spectra | Nucleus peptide (Smarca1 (mouse)): 7 peptides | Nucleus spectra (Smarca1 (mouse)): 14 spectra | Nucleus peptide (Gart (mouse)): 5 peptides | Nucleus spectra (Gart (mouse)): 7 spectra | Nucleus peptide (Ruvbl2 (mouse)): 12 peptides | Nucleus spectra (Ruvbl2 (mouse)): 31 spectra | Nucleus peptide (Psmd2 (mouse)): 5 peptides | Nucleus spectra (Psmd2 (mouse)): 12 spectra | Nucleus peptide (Cul4b (mouse)): 4 peptides | Nucleus spectra (Cul4b (mouse)): 7 spectra | Nucleus peptide (Tmem48 (mouse)): 3 peptides | Nucleus spectra (Tmem48 (mouse)): 4 spectra | Nucleus peptide (Pkm2 (mouse)): 3 peptides | Nucleus spectra (Pkm2 (mouse)): 3 spectra | Nucleus peptide (Cct2 (mouse)): 8 peptides | Nucleus spectra (Cct2 (mouse)): 17 spectra | Nucleus peptide (Nsd1 (mouse)): 4 peptides | Nucleus spectra (Nsd1 (mouse)): 5 spectra | Nucleus peptide (Gm1040 (mouse)): 5 peptides | Nucleus spectra (Gm1040 (mouse)): 8 spectra | Nucleus peptide (Tufm (mouse)): 9 peptides | Nucleus spectra (Tufm (mouse)): 25 spectra | Nucleus peptide (Cct8 (mouse)): 12 peptides | Nucleus spectra (Cct8 (mouse)): 31 spectra | Nucleus peptide (Nol9 (mouse)): 6 peptides | Nucleus spectra (Nol9 (mouse)): 14 spectra | Nucleus peptide (Calu (mouse)): 3 peptides | Nucleus spectra (Calu (mouse)): 6 spectra | Nucleus peptide (Ncapd2 (mouse)): 10 peptides | Nucleus spectra (Ncapd2 (mouse)): 22 spectra | Nucleus peptide (Racgap1 (mouse)): 6 peptides | Nucleus spectra (Racgap1 (mouse)): 7 spectra | Nucleus peptide (Tubb6 (mouse)): 3 peptides | Nucleus spectra (Tubb6 (mouse)): 5 spectra | Nucleus peptide (Ncapg (mouse)): 4 peptides | Nucleus spectra (Ncapg (mouse)): 9 spectra | Nucleus peptide (Wapal (mouse)): 18 peptides | Nucleus spectra (Wapal (mouse)): 41 spectra | Nucleus peptide (Ywhab (mouse)): 3 peptides | Nucleus spectra (Ywhab (mouse)): 7 spectra | Nucleus peptide (Spnb2 (mouse)): 17 peptides | Nucleus spectra (Spnb2 (mouse)): 26 spectra | Nucleus peptide (Pcbp1 (mouse)): 5 peptides | Nucleus spectra (Pcbp1 (mouse)): 13 spectra | Nucleus peptide (Zfp655 (mouse)): 4 peptides | Nucleus spectra (Zfp655 (mouse)): 9 spectra | Nucleus peptide (Ttf1 (mouse)): 3 peptides | Nucleus spectra (Ttf1 (mouse)): 4 spectra | Nucleus peptide (Plec1 (mouse)): 48 peptides | Nucleus spectra (Plec1 (mouse)): 94 spectra | Nucleus peptide (Smpd4 (mouse)): 9 peptides | Nucleus spectra (Smpd4 (mouse)): 17 spectra | Nucleus peptide (Canx (mouse)): 7 peptides | Nucleus spectra (Canx (mouse)): 23 spectra
Substance: human AID containing two tandem Flag tags (Flag-human AID) (from UniProt Q9GZX7 1-198) (enzyme)
